Usually Kd stands for the concentration at which binding is half-saturated. Low readings indicate higher affinity, high ones lower affinity.

Assay in all cases: filter
Data set [1] has as its target T1, secretory phospholipase A2 (sPLA2) (Homo sapiens) (UniProt P14555).
T1 sequence: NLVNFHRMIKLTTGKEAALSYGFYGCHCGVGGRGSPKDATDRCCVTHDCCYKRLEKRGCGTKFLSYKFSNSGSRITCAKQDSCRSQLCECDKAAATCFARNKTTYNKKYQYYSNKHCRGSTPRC
The following applies: TBSC, 37 C.

Data set [2] has as its system immunoglobulin G (IgG) (Homo sapiens). The following applies: 2'-NH2 all C and U, TBSC.
Data set [3] concerns the target lysozyme (egg white) (Gallus gallus) (UniProt P00698). The following applies: random pool; TBSC.
Data set [4] has as its target pancreatic phospholipase A2 (bpPLA2) (Bos taurus) (UniProt P00593). The following applies: random pool; TBSC.
For data set [5], the target named is basic fibroblast growth factor (bFGF) (Homo sapiens) (UniProt P09038). The following applies: random pool, TBSC.
Data set [6] deals with T2, neutrophil elastase (Homo sapiens) (UniProt P08246).
T2 sequence: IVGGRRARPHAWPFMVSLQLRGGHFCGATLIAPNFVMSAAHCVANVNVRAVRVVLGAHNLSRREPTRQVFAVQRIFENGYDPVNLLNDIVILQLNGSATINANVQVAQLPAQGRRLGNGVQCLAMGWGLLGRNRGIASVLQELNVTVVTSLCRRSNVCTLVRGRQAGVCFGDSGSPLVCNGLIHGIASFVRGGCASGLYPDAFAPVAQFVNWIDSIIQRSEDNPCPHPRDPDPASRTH
The settings on record: 2'-NH2 all C and U; random pool; TBSC.

The target of data set [7] is C1q (printed Clq) (Homo sapiens) (UniProt P02745+P02746+P02747). The settings on record: 2'-NH2 all C and U; random pool; TBSC.
Setting [8] is: 2'-NH2 all C and U, random starting pool.

Sequence of basic fibroblast growth factor (bFGF) (Homo sapiens) (P09038 143-288): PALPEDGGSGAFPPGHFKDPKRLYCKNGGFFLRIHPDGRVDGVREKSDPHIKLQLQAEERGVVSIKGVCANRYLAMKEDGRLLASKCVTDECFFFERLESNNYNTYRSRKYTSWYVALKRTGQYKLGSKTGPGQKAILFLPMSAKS
Sequence of pancreatic phospholipase A2 (bpPLA2) (Bos taurus) (P00593 23-145): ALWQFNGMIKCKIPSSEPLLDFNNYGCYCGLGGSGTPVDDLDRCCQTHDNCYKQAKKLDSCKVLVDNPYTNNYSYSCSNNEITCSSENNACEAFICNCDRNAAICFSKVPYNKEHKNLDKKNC
Sequence of C1q (printed Clq) (Homo sapiens) (P02745 23-245, chain 1 of 3): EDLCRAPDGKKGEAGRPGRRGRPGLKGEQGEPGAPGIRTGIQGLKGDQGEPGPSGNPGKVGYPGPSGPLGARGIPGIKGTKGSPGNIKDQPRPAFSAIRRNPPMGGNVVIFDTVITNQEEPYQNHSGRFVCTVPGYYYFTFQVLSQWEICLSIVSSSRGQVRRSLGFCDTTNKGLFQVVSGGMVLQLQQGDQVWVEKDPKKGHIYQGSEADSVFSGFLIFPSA
Sequence of C1q (printed Clq) (Homo sapiens) (P02746 28-253, chain 2 of 3): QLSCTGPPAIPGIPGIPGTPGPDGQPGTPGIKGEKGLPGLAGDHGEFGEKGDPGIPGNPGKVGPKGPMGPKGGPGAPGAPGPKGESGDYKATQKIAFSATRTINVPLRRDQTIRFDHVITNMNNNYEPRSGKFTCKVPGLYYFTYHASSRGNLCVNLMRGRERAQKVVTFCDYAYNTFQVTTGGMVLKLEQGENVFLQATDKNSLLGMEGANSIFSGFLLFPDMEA
Sequence of C1q (printed Clq) (Homo sapiens) (P02747 29-245, chain 3 of 3): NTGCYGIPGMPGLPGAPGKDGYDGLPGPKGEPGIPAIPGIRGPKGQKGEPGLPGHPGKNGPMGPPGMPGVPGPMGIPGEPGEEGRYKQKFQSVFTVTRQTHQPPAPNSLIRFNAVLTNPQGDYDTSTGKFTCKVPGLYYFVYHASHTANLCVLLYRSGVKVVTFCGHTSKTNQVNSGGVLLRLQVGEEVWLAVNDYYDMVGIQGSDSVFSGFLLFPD
Sequence of lysozyme (egg white) (Gallus gallus) (P00698 19-147): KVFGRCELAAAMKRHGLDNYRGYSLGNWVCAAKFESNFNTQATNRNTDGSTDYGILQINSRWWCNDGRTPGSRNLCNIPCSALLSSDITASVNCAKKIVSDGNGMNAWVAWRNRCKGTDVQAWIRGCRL

Turning to “GGGAGCUCAGAAUAAACGCUCAANNNNNNNNNNNNNNNNNNNNNNNNNNNNNNUUCGACAUGAGGCCCGGAUCCGGC [30N1F random RNA]”, the Kd in data set [1] (2'-F all C and U, random 2'-F pool) worked out at 35 nM.
On to “GGGAAAAGCGAAUCAUACACAAGACCGGCCGGCGCCAUAGCCGAGAUCCGAGGUGUUGAACGAUAACUCGGUGCUCCGCCAGAGACCAACCGAGAA [NN19]”, for which the Kd in data set [2] (specificity control) was more than 5000 nM.
Sequence “GGGAGCUCAGAAUAAACGCUCAAGANCUCUGCUUACAGCCCGGCUGGGACACUUCGACAUGAGGCCCGGAUCCGGC [75t (75)]” gave a Kd in data set [1] (biphasic, Kd2 420 nM, mole fraction 0.40) of 0.9 nM.
With “GGGAGCUCAGAAUAAACGCUCAANNNNNNNNNNNNNNNNNNNNNNNNNNNNNNUUCGACAUGAGGCCCGGAUCCGGC [30N1 random RNA]”, the Kd in data set [3] was found to be 1650 nM; in data set [4] it was 22500 nM; in data set [1] (random pool, text of Example 2 gives 240 nM) it was 360 nM; in data set [5], 270 nM.
In data set [1] (setting [8]), “GGGAGGACGAUGCGGNNNNNNNNNNNNNNNNNNNNNNNNNNNNNNNNNNNNNNNNNNNNNNNNNNCAGACGACUCGCCCGA [50N7 random RNA]” registered a Kd of 71 nM.
In the case of “GGGAAAAGCGAAUCAUACACAAGANNNNNNNNNNNNNNNNNNNNNNNNNNNNNNNNNNNNNNNNNNNNNNNNNNGCUCCGCCAGAGACCAACCGAGAA [50N9 random RNA]”, the Kd in data set [1] (setting [8]) is 48 nM; in data set [6], 70 nM; in data set [2] (random pool), more than 5000 nM; in data set [5] (2'-NH2 all C and U), 170 nM; in data set [7] it was 1000 nM.
In data set [2] (specificity control, like random RNA), “GGGAAAAGAAGACCGGCCGGCGCCAUAGCCGAGAUCCGAGGUGUUGCCGAGAA [NN19.15]” yielded a Kd of 4300 nM.

The values above are taken from patent US5622828.
